The results in this text go back to patent publication CN114478784A (SHAANXI PULSE ELEMENT BIOTECHNOLOGY LTD COMPANY, dated 2022).

Assay [1] deals with 纯化的ENO2蛋白 (purified ENO2 protein coated in Example 7) (UniProt P09104 1-434, limits assumed). In words: ELISA, ENO2 coated at 100 ng/well, 293T supernatant, HRP anti-heavy-chain IgG / anti-kappa secondary, OD450.
Assay [2] addresses T1, ENO2-GST (human ENO2 expressed from pGEX 4t-1, GST-purified) (human, UniProt P09104 1-434).
T1 construct: Expressed in E. coli BL21(DE3) and used to coat the ELISA plates; also called pGEX 4t-1载体表达的ENO2; ENO2抗原; not shown: GST tag of vector pGEX 4t-1
Description: ELISA screening of hybridoma supernatants on coated ENO2-GST (100 ng/well), three rounds of subcloning.

Assay [3] addresses T2, ENO2 with C-terminal flag tag (ENO2flag-pcDNA3.1, expressed in transfected cells, lysate) (UniProt P09104 2-434).
T2 construct: Denatured cell lysate on SDS-PAGE / PVDF membrane (Western blot); also called ENO2抗原; not shown: C-terminal flag tag
In words: Western blot, lysate of cells transfected with ENO2flag-pcDNA3.1, hybridoma supernatant as primary antibody.

纯化的ENO2蛋白 (purified ENO2 protein coated in Example 7), sequence (P09104 whole entry): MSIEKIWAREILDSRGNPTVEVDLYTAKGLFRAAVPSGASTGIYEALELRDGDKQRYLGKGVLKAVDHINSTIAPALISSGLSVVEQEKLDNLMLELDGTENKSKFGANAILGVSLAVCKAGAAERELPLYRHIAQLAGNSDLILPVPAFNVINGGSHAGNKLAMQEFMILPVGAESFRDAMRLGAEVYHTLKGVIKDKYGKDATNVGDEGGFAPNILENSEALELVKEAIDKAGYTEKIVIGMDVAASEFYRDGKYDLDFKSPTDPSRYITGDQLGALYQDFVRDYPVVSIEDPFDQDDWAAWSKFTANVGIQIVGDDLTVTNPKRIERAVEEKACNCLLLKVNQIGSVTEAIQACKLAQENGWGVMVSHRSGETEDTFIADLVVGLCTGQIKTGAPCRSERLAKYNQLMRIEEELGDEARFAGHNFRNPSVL
T1 sequence (P09104 whole entry): as above
T2 sequence (P09104 2-434 limits assumed): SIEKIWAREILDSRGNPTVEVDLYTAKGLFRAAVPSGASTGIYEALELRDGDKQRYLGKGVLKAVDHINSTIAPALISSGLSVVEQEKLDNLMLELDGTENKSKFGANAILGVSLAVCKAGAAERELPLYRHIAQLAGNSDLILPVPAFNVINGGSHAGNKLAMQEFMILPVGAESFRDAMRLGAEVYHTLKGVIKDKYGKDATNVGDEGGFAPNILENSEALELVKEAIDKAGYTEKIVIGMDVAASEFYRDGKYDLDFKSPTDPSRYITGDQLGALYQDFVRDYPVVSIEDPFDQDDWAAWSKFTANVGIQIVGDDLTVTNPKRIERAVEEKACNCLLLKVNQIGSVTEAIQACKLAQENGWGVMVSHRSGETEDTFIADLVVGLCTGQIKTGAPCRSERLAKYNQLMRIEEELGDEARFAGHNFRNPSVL

B1: 1C5mk alone (recombinant 1C5 light chain, transfected without the heavy chain) (other)
light: QAVVTQESALTTSPGETVTLTCRSNTGAVTTSNYANWVQEKPDHLFTGLIGGTYNRAPGVPARFSGSLIGDKAALTITGAQTEDEAIYFCSLWYSNHWVFGGGTKLTVLRADAAPTVSIFPPSSEQLTSGGASVVCFLNNFYPKDINVKWKIDGSERQNGVLNSWTDQDSKDSTYSMSSTLTLTKDEYERHNSYTCEATHKTSTSPIVKSFNRNEC
notes: Tested as supernatant of 293T cells transfected with the light chain plasmid only; also called 轻链1C5mk
Turning to B1, the binding result in assay [1] is recorded as “no binding”.

B2: ENO2单克隆抗体1C5 (from hybridoma) (antibody, V domains shown)
VH: EVKLVESGGDLVQPGGSLRLSCATSGFTFTDYYMIWVRQPPGKALEWLGFIRNKANGYTTQYNASVKGRFTISRDNSQSILYLQMNTLRPEDSATYYCVRDRRGTTFAYWGQGTLVTVSA
VL: QAVVTQESALTTSPGETVTLTCRSNTGAVTTSNYANWVQEKPDHLFTGLIGGTYNRAPGVPARFSGSLIGDKAALTITGAQTEDEAIYFCSLWYSNHWVFGGGTKLTVL
notes: It was used as hybridoma culture supernatant in the assays; also called 1C5单克隆抗体; 杂交瘤细胞上清
In the case of B2, the binding result in assay [2] and in assay [3] was “binds” throughout.
